According to patent US20260028390A1, “ALPHA1-ANTITRYPSIN FOR USE IN THE TREATMENT OF DISEASES OR DISORDERS OF THE NERVOUS SYSTEM SUCH AS CHRONIC INFLAMMATORY DEMYELINATING POLYNEUROPATHY” (Ageronix SA, priority 2022, published 2026):

Assays:
[1] = biological target: T1, Recombinant Human TACE/ADAM17 (Homo sapiens, UniProt P78536); assay: Cell free TACE/ADAM17 activity; format: biochemical
T1 construct: purchased R&D Systems 930-ADB-010
Method: TACE activity and its inhibition by human AAT (AAT) was performed with Recombinant Human TACE/ADAM17 kit (930-ADB and ES003, R&D Systems) in black 96-well immuno plates (437111, ThermoFisher Scientific). The enzymatic activity of TACE/ADAM17 was measured by mixing 0.005 μg of rhTACE with 10 μM of Mca-PLAQAV-Dpa-RSSSR-NH2 fluorogenic peptide substrate III in assay buffer (25 mM Tris, 2.5 μM ZnCl2, 0.005% Brij-35 (w/v), pH 9.0) to a final volume of 100 μl. AAT (Sigma Aldrich, batch A6150) was resuspended in water (vehicle), control TACE/ADAM17 activity was assessed in presence of the vehicle (amount used for AAT 100 μM). AAT was added at different concentration (0, 6.25, 12.5, 25, 50 and 100 μM) to assess its dose-dependent inhibition of TACE/ADAM17. All conditions were performed in triplicates. Activity was measured as relative fluorescent unit (RFU) in a kinetic mode (9 time points over 5 min) with a SpectraMax iD3 Microplate Reader (low PMT gain, is exposition, top read at 1 mm, wavelength: excitation 320 nm, emission 405 nm). Bar graph as percentage of control activity was obtained by averaging the values obtained over the 5 min for each of the condition.
TACE activity is assessed according to the manufacturer's instruction (Recombinant Human TACE/ADAM17 kit, 930-ADB, R&D Systems) in kinetic mode, without or with different AAT concentration. All conditions were done in triplicates and are shown as mean±SD (FIGS. 5A, 5B and 5C).
ADAM-17 activity and its inhibition by human peptide 8 was measured with Recombinant Human ADAM-17 kit (Recombinant Human TACE/ADAM17 Protein, CF: 930-ADB-010 and Mca-PLAQAV-Dpa-RSSSR-NH2 Fluorogenic Peptide Substrate:ES003; R&D Systems) in black 96-well immunoplates (437111; Thermo Fisher Scientific). The enzymatic activity of ADAM-17 was measured by mixing 0.005 μg of rhADAM-17 with 10 μM of Mca-PLAQAV-Dpa-RSSSR-NH2 fluorogenic peptide substrate III in assay buffer (25 mM Tris, 2.5 μM ZnCl2, 0.005% Brij-35 (w/v), pH 9.0) to a final volume of 100 μL. Peptide 8 (Syngene) was dissolved in DMSO and diluted to the desired concentration in assay buffer. Control ADAM-17 activity was assessed in the presence of the assay buffer. […] All conditions were performed in triplicate. Activity was measured as relative fluorescent units (RFU) in endpoint mode (5 min) with a SpectraMax iD3 Microplate Reader (automatic PMT gain, wavelengths: excitation 320 nm, emission 405 nm).

[2] = biological target: Recombinant Human TACE/ADAM17 Protein (R&D Systems 930-ADB) (human) (UniProt P78536); assay: cell-based or functional assay
Chain of Recombinant Human TACE/ADAM17 Protein (R&D Systems 930-ADB) (human) (P78536 215-671 limits assumed): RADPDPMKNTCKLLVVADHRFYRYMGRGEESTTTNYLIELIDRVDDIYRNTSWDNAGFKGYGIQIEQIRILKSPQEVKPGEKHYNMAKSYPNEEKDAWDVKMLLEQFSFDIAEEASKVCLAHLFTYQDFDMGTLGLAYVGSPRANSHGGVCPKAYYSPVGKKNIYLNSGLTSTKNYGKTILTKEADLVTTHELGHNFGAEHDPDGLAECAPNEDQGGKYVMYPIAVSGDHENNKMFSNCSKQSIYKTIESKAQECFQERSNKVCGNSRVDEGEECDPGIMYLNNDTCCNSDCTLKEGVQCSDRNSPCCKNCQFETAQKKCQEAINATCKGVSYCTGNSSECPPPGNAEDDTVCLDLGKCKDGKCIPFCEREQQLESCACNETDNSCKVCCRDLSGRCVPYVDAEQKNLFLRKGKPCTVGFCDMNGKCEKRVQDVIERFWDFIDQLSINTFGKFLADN

T1 sequence (P78536 215-671 limits assumed): as above

Ac-YRAHQGE-NH2 [Peptide 8, AAT-related peptide derived from immunoregulatory sites on the surface of AAT]
inhibition of ADAM17 activity ([1]; peptide 8 at concentration of 100 (μM), experiment 2): 36% | inhibition of ADAM17 activity ([1]; peptide 8 at concentration of 200 (μM), experiment 2): 65% | inhibition of ADAM17 activity ([1]; peptide 8 at concentrations up to 50 μM, vs DMSO): No significant inhibition

human alpha1-antitrypsin (AAT) (Sigma Aldrich, batch A6150) (from UniProt P01009 25-418)
IC50 of inhibition of TACE activity, cell-free fluorogenic peptide substrate assay [2]: 15.3 µM
